From patent US5792742
Blank lines part the entries; values can stand above or below the binder they belong to. Where no end group is shown, it is not given here. [ ]: non-standard residue; d: D form. pGlu = O=C1CC[C@@H](C(=O)O)N1

How the values were obtained:
[1] = molecular target: fibrin (fibrinogen dried on microtiter wells and converted with thrombin); assay: competitive ELISA on fibrin-coated plates, competitor Fn (2.3 nM)
[2] = molecular target: fibrin (fibrinogen dried on microtiter wells and converted with thrombin); assay: competitive ELISA on fibrin-coated wells, competitor biotinylated Fn (2.3 nM)
[3] = molecular target: fibrin (fibrinogen dried on microtiter wells and converted with thrombin); assay: competitive ELISA on fibrin-coated plates, competitor Fn (2.3 nM), 5,000 molar excess
[4] = molecular target: fibrin (fibrinogen dried on microtiter wells and converted with thrombin); assay: competitive ELISA against intact Fn on fibrin
[5] = molecular target: fibrin (fibrinogen dried on microtiter wells and converted with thrombin); assay: competitive ELISA on fibrin-coated plates, competitor Fn

% inhibition of Fn binding [1]: < 20%
B1: recombinant ^1 F1 module of fibronectin (peptide)
chain: [pGlu]AQQMVQPQSPVAVSQSKPGCYDNGKHYQINQQWERTYLGNALVCTCYGGSRGFNCESKPE
modifications: not fully specified (bridges); also: major species lacks N-terminal Gln-Ala, its new N-terminal Gln also pyroglutamate

% inhibition of biotinylated Fn binding [2]: 15%
% inhibition of Fn binding [3]: < 20%
B2: recombinant ^1 F1.^2 F1 module pair of fibronectin (peptide)
chain: QAQQMVQPQSPVAVSQSKPGCYDNGKHYQINQQWERTYLGNALVCTCYGGSRGFNCESKPEAEETCFDKYTGNTYRVGDTYERPKDSMIWDCTCIGAGRGRISCTI
modifications: N-terminal pyroglutamate; the major species lacks the NH2-terminal Gln-Ala dipeptide and its new N-terminal Gln is also pyroglutamate

% inhibition (so in the source) [4]: 45%
% inhibition of fibronectin binding [5]: 55%
Binder: CRDEKTQMIYQQHQSWLRPVLRSNRVEYCWCNSGRAQCH (not fully specified (bridges); cysteine pairing not given here) [t-PA type 1 module]
